Experiments:
[1] = target: T1, human OX40 on cells (CHO-hOX40, 293HEK-hOX40, Jurkat-hOX40, activated primary CD4+ T cells) (human, UniProt P43489 29-277); assay: flow cytometry, 293HEK-hOX40 cells
T1 construct: whole, on cells; The cell type is told in each assay; also called CHO-OX40
T1 sequence (looked up): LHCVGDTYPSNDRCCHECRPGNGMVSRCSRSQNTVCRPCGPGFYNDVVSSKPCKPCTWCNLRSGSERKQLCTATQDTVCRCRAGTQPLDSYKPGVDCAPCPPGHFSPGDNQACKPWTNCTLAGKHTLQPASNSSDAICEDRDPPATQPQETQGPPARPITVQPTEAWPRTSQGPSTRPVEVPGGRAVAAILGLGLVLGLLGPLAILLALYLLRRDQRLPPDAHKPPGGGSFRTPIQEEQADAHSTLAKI

[2] = target: T1, human OX40 on cells (CHO-hOX40, …); assay: flow cytometry, CHO-hOX40, 25 nM
[3] = target: T1, human OX40 on cells (CHO-hOX40, …); assay: flow cytometry, CHO-hOX40, 50 nM
[4] = target: T1, human OX40 on cells (CHO-hOX40, …); assay: flow cytometry, CHO-hOX40, 100 nM
[5] = target: T1, human OX40 on cells (CHO-hOX40, …); assay: flow cytometry, CHO-hOX40, 200 nM
[6] = target: T1, human OX40 on cells (CHO-hOX40, …); assay: flow cytometry, CHO-hOX40, 12.5 nM
[7] = target: T1, human OX40 on cells (CHO-hOX40, …); assay: flow cytometry, CHO-hOX40, 6.25 nM
[8] = target: T1, human OX40 on cells (CHO-hOX40, …); assay: flow cytometry, 293HEK-hOX40, 8 nM
[9] = target: T1, human OX40 on cells (CHO-hOX40, …); assay: flow cytometry, CHO-hOX40, 3.125 nM
[10] = target: T1, human OX40 on cells (CHO-hOX40, …); assay: flow cytometry, 293HEK-hOX40, 40 nM
[11] = target: T1, human OX40 on cells (CHO-hOX40, …); assay: flow cytometry, CHO-hOX40, 1.5625 nM
[12] = target: T1, human OX40 on cells (CHO-hOX40, …); assay: flow cytometry, 293HEK-hOX40, 1.6 nM
[13] = target: T1, human OX40 on cells (CHO-hOX40, …); assay: flow cytometry, 293HEK-hOX40, 200 nM
[14] = target: T1, human OX40 on cells (CHO-hOX40, …); assay: flow cytometry, CHO-hOX40, 0.78125 nM
[15] = target: T1, human OX40 on cells (CHO-hOX40, …); assay: flow cytometry, CHO-hOX40, 0.390625 nM
[16] = target: T1, human OX40 on cells (CHO-hOX40, …); assay: flow cytometry, CHO-hOX40, 0.1953125 nM
[17] = target: T1, human OX40 on cells (CHO-hOX40, …); assay: flow cytometry, CHO-hOX40, 0.09765625 nM
[18] = target: T1, human OX40 on cells (CHO-hOX40, …); assay: flow cytometry, CHO-hOX40, 0.024414063 nM
[19] = target: T1, human OX40 on cells (CHO-hOX40, …); assay: flow cytometry, CHO-hOX40, 0.048828125 nM
[20] = target: T1, human OX40 on cells (CHO-hOX40, …); assay: flow cytometry, activated CD4+ T cells, donor 1, 100 nM
[21] = target: T1, human OX40 on cells (CHO-hOX40, …); assay: flow cytometry, activated CD4+ T cells, donor 2, 100 nM
[22] = target: T1, human OX40 on cells (CHO-hOX40, …); assay: flow cytometry, CHO-hOX40, 100 nM blocker, competitor OX40L-hFc-fluorescein

B1: IgG1 control (antibody, V domains shown)
VH: EVRLLESGGGLVQPGGSLRLSCAASGFTFSNYAMGWVRQAPGKGLEWVSAISGSGGSTYYADSVKGRFTTSRDDSKNALYLQMNSLRAEDTAVYYCARGGPGWYAADVWGQGTTVTVSS
VL: DIQMTQSPSSLSASVGDRVTITCRASQSISSYLNWYQQKPGKAPKLLIYAASSLQSGVPSRFSGSGSGTDFTLTISSLQPEDFATYYCQQADLPAFAFGGGTKVEIKR
notes: Negative control; The printed entries seem to begin with a leader peptide
For B1, the binding result [1] was “no binding (tested: 200 nM)”, the MFI [2] was 1560 MFI and the MFI [3] was 1700 MFI. The MFI [4] was 1720 MFI, the MFI [5] was 2820 MFI and the MFI [6] was 1630 MFI. For the same binder, the MFI [7] was 1600 MFI, the MFI [8] was 5310 MFI and the MFI [9] was 1750 MFI. It also gave an MFI [10] of 25200 MFI, an MFI [11] of 1930 MFI and an MFI [12] of 5630 MFI. For the same binder, the MFI [13] was 11100 MFI, the MFI [14] was 1680 MFI and the MFI [15] was 1710 MFI. It also gave an MFI [16] of 1510 MFI, an MFI [17] of 2380 MFI and an MFI [18] of 2070 MFI. The MFI [19] was 2020 MFI, the MFI [20] was 6310 MFI and the MFI [21] was 1710 MFI. The “MFI of OX40L signal on CHO-OX40 cells” value [22] was 35100 MFI.
